From the supplement of paper PMC12042874 come the findings set out here.

± gives the uncertainty stated by the source.

A short description of this data set: amyloid nucleation score (Sup35N fusion, yeast selection) (log enrichment); library NNK1; higher = more nucleation; inactive = no reads after selection. Summed up: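 The nucleation score equals the log enrichment of output over input reads from DiMSum, centred on the mode score of non-aggregating sequences. It was computed only for sequences with 100 or more input reads. The reads came from Illumina sequencing of plasmid inserts from psi-negative yeast expressing Sup35N fused to peptides of 20 random codons, induced with 100 μM copper sulfate for 24 hours and grown 7 days at 30°C without adenine and uracil.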
The substance ASVYQRWPSFYRRLFVFNVI gave an amyloid nucleation score of 0.358 ± 0.55. For IFSNQLYVERIVLDENKALL the value was 3.62 ± 0.094; for ILLMFYRCSKDILLIRSTDF, 0.059 ± 0.27. For YWVYSSRGCA the value was “inactive”. For the substance YRRDYGPKSVDWRPYVVEVR, the amyloid nucleation score came to 0.359 ± 0.64. For GKLTYLPRVKNLHLHFSFEN the value was -0.169 ± 0.51; for TIFLSF, -0.284 ± 0.27; for DSRLGLMWMYEPIIRDGKWF, 0.802 ± 0.9. SWCHVKIVSYRVSEVR yielded an amyloid nucleation score of 0.228 ± 0.32.

The substance LLVLYCALLMRLSGLGHAWG had an amyloid nucleation score of -0.269 ± 0.51. For RVGYIYHYYLDNQG the value was -0.175 ± 0.38; for VKGVVYAGH, -1.44 ± 1.8. For LTEDPGIRSSQR the value was 0.055 ± 1. Substance QCMSMSYPFMPRTHQRTVLK returned an amyloid nucleation score of -0.179 ± 0.31.

AKRLWIQLRGVHSRMLTGYY registered an amyloid nucleation score of -0.244 ± 1.5. In turn, FVGNPSRRWLCHCKFIAGGH registered an amyloid nucleation score of 0.137 ± 0.38. For YFHIESGLYYTWFMLYGPGR the value was 0.154 ± 0.61; for SGNMNSLYWKSQKCNSYSFP, 0.935 ± 1.1. For the substance DWVELR, the amyloid nucleation score was -0.101 ± 0.86. For KHRFCSIEWVK the value was 1.31 ± 0.71. On to VVARYYIQLFDRRDRN, for which the amyloid nucleation score came out at 6.678 ± 0.065.

With DSRVKRY, the amyloid nucleation score result is “inactive”. For SLVNFVAMGARDRIPCVYKR the value was -1.03 ± 2.4; for LMRYALSIPRRAYVVRRLVM, 0.444 ± 1.2; for SNFLHCIVIILWLCFNL, 0.53 ± 0.71. The substance RRILGRYRC gave an amyloid nucleation score of -0.129 ± 1.1. For MDSTDWRVLLGRSMGWS the value was -0.596 ± 0.47; for CFVGMMKRFR, 1.36 ± 0.4. Substance IAHFELMRHNVHLKWVESWL had an amyloid nucleation score of 0.911 ± 0.27. Substance NGWPWGERSALRMG returned an amyloid nucleation score of -0.573 ± 0.95. Regarding RRHWTVMVMNIPVGMFIVIR, the amyloid nucleation score was 0.155 ± 0.27.

MFVNPALLLFL showed an amyloid nucleation score of 0.226 ± 1.6. For SLTCWG the value was 0.436 ± 0.33; for QGAGILTYPRALRHWVVRRM, 0.12 ± 0.51; for GFRSCRCVQGRANVFPYSMS, -0.103 ± 0.25. Consider MKRVWSYIAGKNARNLKGRL, for which the amyloid nucleation score was found to be 0.174 ± 0.41. For FGLAGHFYNWNYIYTSSVWF the value was -0.021 ± 0.59; for SERDRLSLMRRVAM, -0.153 ± 1.4. With YYDTEGIHHSSIQRCQIRAG, the amyloid nucleation score was found to be 1.16 ± 0.58. For FRLEGRCSLLFCTCRLDV the value was 0.561 ± 0.45; for NMFMIV, -1.05 ± 1.3. For KWSWGGPRDMIFKDTLAGAR the value was “inactive”.

As to KAGVSVLYLHMFLF, the amyloid nucleation score is -0.303 ± 0.79. For SNFKK the value was -1.06 ± 0.64; for ILSYVTVDPAKVNYIFREWF, -1.03 ± 0.76. For TVYYDSIRSMYGYGGGVASR the value was -0.344 ± 0.49; for WTNSRHC, 0.636 ± 0.38. Take CGGFGMIFYL: the amyloid nucleation score stood at 3.03 ± 0.11. For AKCAVASAIKVQQDDADGPD the value was -0.012 ± 0.52; for VIAMDNDRYFGSVFSYIRMN, -0.147 ± 0.29.

The substance MLTPDLSSDLDILRPTSPLT came in with an amyloid nucleation score of 0.879 ± 0.51.

Regarding KCIDMVFKY, the amyloid nucleation score came to 0.143 ± 0.39. The substance YRNEESVSKSHGCHDMSWFA showed an amyloid nucleation score of 0.505 ± 0.54. For RLSYISPPSVYLALSRSRMD the value was 0.229 ± 0.75.

Turning to NSYVLVNCALLRLGRINVFY, the amyloid nucleation score is 7.56 ± 0.077. For DSSVLRMQRVDRTRAFTYHW the value was -0.68 ± 0.56; for PITILVVFNLQKY, 6.242 ± 0.046. For RTSPPFNTVYYTGEYEIIEI the value was -0.353 ± 0.54; for ESKEPFLCIQDITVSSFLPF, -1.69 ± 2.4. For SLLDWCYINRHM the value was 0.604 ± 0.44.

GISSCWLRRFHVAKRARPSG displayed an amyloid nucleation score of -1.02 ± 2.7. For LGVMMFRCVL the value was 3.79 ± 0.16; for WQQWGRSPRTR, 0.368 ± 0.46; for NCKNVYCFKYASGIGERAFY, 0.091 ± 0.42.

EQCTLVVSYGVWGHRSSCVG showed an amyloid nucleation score of 0.93 ± 0.45. Take NWNSR: the amyloid nucleation score was determined as 0.197 ± 0.64. For VKGQHFQLKIVRRLRTFRHH the value was 3.79 ± 0.066; for VLVMVEFTMLEALWRCLAVG, -0.297 ± 0.5; for YSGHWPWMQ, -1.17 ± 0.74. In turn, RLLWRWWRAVDVRGHDRLNL yielded an amyloid nucleation score of -0.306 ± 1.2. LNCNV gave an amyloid nucleation score of 1.24 ± 0.76. For YVEQYLWDSDWSSGI the value was 0.974 ± 0.14.

Substance SHAFRITS gave an amyloid nucleation score of 0.619 ± 0.85. For the substance SIDWRAEMNSLSM, the amyloid nucleation score is -0.109 ± 0.24. For FISHGRIVHGEDGAVLFVSG the value was 0.277 ± 1.4; for RSSNLVCYFFSVWWY, 2.02 ± 0.44; for ECYQKTGVCRK, -0.447 ± 0.89. For TLVCNGQISTNLYYVKVGSS the value was 2.83 ± 0.12. Substance VNMNELRNNRLSSVVFLVVG registered an amyloid nucleation score of 2.09 ± 0.21.

SHTLHDAIYGVDVQPFDTRV had an amyloid nucleation score of 0.102 ± 0.66. For GNCSMSVGATLEGLMVRVHI the value was 0.027 ± 0.68.

For the substance GVMQFENIYGFVALMRRLMF, the amyloid nucleation score was 0.668 ± 0.62. On to EGTLSMALTL, for which the amyloid nucleation score turned out to be 0.849 ± 0.49. For GSNVSSTM the value was 0.537 ± 0.51; for CTARLIA, 0.13 ± 0.28. For YSEWRSSHNRFMSRPLSTPR the value was -0.992 ± 0.55; for QVSANSKNKSVVLFQIKSNE, -0.17 ± 0.4. For RFFISYTFSWPRYLVGKDLL, the amyloid nucleation score is -0.936 ± 0.34. The substance SCRRYSYKCSVL registered an amyloid nucleation score of -0.16 ± 1.4. For TSFMEIVVLDAVGRQRRSSV the value was -0.106 ± 0.49; for VCIIIVYRIYLSYMCPISY, -0.463 ± 0.37. For KTGTYWKSDGCVLWFGVKPA the value was 0.32 ± 0.38; for RRGVV, 0.659 ± 0.93; for KKWHNVIGARDLSRIYSIA, “inactive”. For FQYLNLGISRHSARWTCTFL the value was -0.698 ± 1.4; for WNPIAIYEGDGMQDAFCADL, -0.033 ± 0.38. LTGLVMTVCFFWKARRF came in with an amyloid nucleation score of 0.845 ± 0.86. For YKGLFR the value was 0.065 ± 0.45; for ICVSSGSVIIIVTYFAKCPA, 0.484 ± 0.24; for VRTLRTLAGLRRLLINKS, -0.137 ± 0.54. For CSTTLEVTVGMAVVMLLQGI the value was 2.66 ± 0.086; for LWVNTDSSLECHRWLRVIV, 1.2 ± 0.37; for DWVYITLNGLLW, -0.145 ± 0.46. For EYVHLNQVNDAGGVDSGTLS the value was 0.823 ± 0.28. SDYFYSGKGFFLAMGLSMSR registered an amyloid nucleation score of -1.5 ± 1.8. For SCSVYTGYSYGLRYNFDLVS the value was -1.81 ± 2.4; for NPPGGDIYEC, -0.721 ± 0.53; for LSVAHDGSLWVLFRKKPFGL, -0.106 ± 0.57.

Substance RFLTGCICAQSLRQLTS registered an amyloid nucleation score of -0.075 ± 0.48. For WRMRYKC the value was -0.338 ± 1.2; for GICWLISCGRIVAGSSEQYV, 0.924 ± 0.3.

RRYHGGDWSLLVNQLN: the amyloid nucleation score worked out at 0.374 ± 0.23.

On to LYCMGVLPSLLAISMVWVRG, for which the amyloid nucleation score is 2.94 ± 0.2. GCTSGGLCIGPPRSV showed an amyloid nucleation score of 0.906 ± 1. For RWLETVGECCCESARVFCA the value was -0.45 ± 0.59; for SFFWDT, -0.524 ± 0.51; for QRFRTLCNLVFYLGSKVRET, 0.317 ± 0.3. For the substance GLREMRNISAVFCFRLYICL, the amyloid nucleation score stood at 1.58 ± 0.14.

For YYVMRYDASLYDKRKERVFG, the amyloid nucleation score was determined as 0.851 ± 0.39. GGHFWWNTGQARVNWTIRLE: the amyloid nucleation score was 0.123 ± 0.48. For HTHSGVYC the value was -0.468 ± 0.5; for GIYCLYFDILEVFLYTTTLS, 0.27 ± 0.42; for RAGQVRNNDTSVEFAMCGRW, 0.355 ± 0.38. Consider MCSLYFLYGAGVSCGSVLNV, for which the amyloid nucleation score came out at 0.063 ± 0.4. For NSRKSAGHPSLESGSLLCYA the value was -0.041 ± 0.5; for KIICFRLKSPLVWKMYDKTG, -0.699 ± 0.32. For RMLDY the value was 0.318 ± 1.2; for WVCFIFIIFETVS, -0.207 ± 0.47.

Substance SLSQG showed an amyloid nucleation score of 0.441 ± 0.93. On to YVQLI, for which the amyloid nucleation score is -0.256 ± 0.39. In turn, GSSGAWVCSGCL registered an amyloid nucleation score of -0.626 ± 1.2. For DRVSCNEEFQRKCIFTVIRR the value was 1.19 ± 0.63. For KNVYDYFWLDNCYAIDIASM the value was 0.427 ± 0.41; for TYRKYLRVRTLDERHGSVYE, 0.147 ± 0.35. For WNVDVGSLC the value was “inactive”; for MLARKRMLNLLLRGWAYSWT, 0.09 ± 0.49. SPAFQWHLYPSA displayed an amyloid nucleation score of 0.592 ± 0.87. The substance RGGNLSRAFNYVRYIITHKN returned an amyloid nucleation score of 0.145 ± 0.46. LWHFWGYGGALP came in with an amyloid nucleation score of -0.738 ± 0.75. Take KSHIIFSIWQRLFGGHRISK: the amyloid nucleation score worked out at 0.413 ± 0.58.

Substance MWHGSVTMGGIRGTRDSVHQ gave an amyloid nucleation score of 0.792 ± 0.53. For YSYAGSLMAWSRKVHMHTEV the value was -0.19 ± 0.57.
